Measurements reported in patent US20220098240A1 (FUJIFILM, published 2022).
Bridge positions count the residues as written; N and C are the ends. Square brackets hold non-standard residues; d marks the D form. Ends that are not written are not given here. COCH2 = acetyl group that carries the bridge; Pen = CC(C)(S)[C@H](N)C(=O)O; hCys = N[C@@H](CCS)C(=O)O; Orn = NCCC[C@H](N)C(=O)O; Dab = NCC[C@H](N)C(=O)O; Dap = NC[C@H](N)C(=O)O

B1: Cyclic peptide 44 (peptide)
peptide: {CH2CO}-V[hCys]RGDK(COCH2)F[hCys]AKKK
modifications: thioether 2-6, N-8
B2: Cyclic peptide 40 (peptide)
peptide: {CH2CO}-E[Orn](COCH2)RGD[hCys]F[hCys]KKK
modifications: thioether 2-6, N-8
B3: Cyclic peptide 39 (peptide)
peptide: {CH2CO}-D[Orn]RGD[hCys]F[hCys]KKK
modifications: thioether N-8; bridge 2-6; not fully specified (residue 2, bridges)
B4: Cyclic peptide 22 (peptide)
peptide: {CH2CO}-I[hCys]RGDK(COCH2)F[hCys]K
modifications: thioether 2-6, N-8
B5: Cyclic peptide 15 (peptide)
peptide: {CH2CO}-I[Orn](COCH2)RGD[hCys]FCKKK
modifications: thioether 2-6 via Ac; thioether N-8; not fully specified
notes: bicyclic; all residues L; immobilised on CM5 chip through amino groups
B6: Cyclic peptide 47 (peptide)
peptide: {CH2CO}-E[hCys]RGD[Orn](COCH2)F[hCys]AKKK
modifications: thioether 2-6, N-8
B7: Cyclic peptide 20 (peptide)
peptide: {CH2CO}-ICRGD[Dab](COCH2)F[hCys]KKK
modifications: thioether 2-6 via Ac; thioether N-8; not fully specified
notes: as for B5
B8: Cyclic peptide 27 (peptide)
peptide: {CH2CO}-T[hCys]RGDK(COCH2)F[hCys]KKK
modifications: thioether 2-6, N-8
B9: Cyclic peptide 26 (peptide)
peptide: XXRGDXFXKKK
modifications: not fully specified; thioether: L1 alpha-NH2 through acetyl to Hcy8; thioether: Hcy2 to K(acetyl)6
B10: Cyclic peptide 29 (peptide)
peptide: {CH2CO}-D[hCys]RGDK(COCH2)F[hCys]KKK
modifications: thioether 2-6, N-8
B11: Cyclic peptide 28 (peptide)
peptide: {CH2CO}-V[hCys]RGDK(COCH2)F[hCys]KKK
modifications: thioether 2-6, N-8
B12: Cyclic peptide 12 (peptide)
peptide: XCRGDXFCKKK
modifications: not fully specified; thioether: I1 alpha-NH2 through acetyl to C8; thioether: C2 to K(acetyl)6
notes: as for B5
B13: Cyclic peptide 30 (peptide)
peptide: {CH2CO}-E[hCys]RGDK(COCH2)F[hCys]KKK
modifications: thioether 2-6, N-8
B14: Cyclic peptide 48 (peptide)
peptide: {CH2CO}-KCRGDCFCKKK
modifications: disulfide 2-6; thioether N-8
notes: bicyclic comparative peptide; all residues L; immobilised on CM5 chip through amino groups
B15: Cyclic peptide 38 (peptide)
peptide: {CH2CO}-V[Orn](COCH2)RGD[hCys]F[hCys]KKK
modifications: thioether 2-6, N-8
B16: Cyclic peptide 43 (peptide)
peptide: {CH2CO}-E[hCys]RGD[Orn](COCH2)F[hCys]KKK
modifications: thioether 2-6, N-8
B17: Cyclic peptide 3 (peptide)
peptide: {CH2CO}-I[Orn](COCH2)RGD[hCys]F[hCys]KKK
modifications: thioether 2-6, N-8
B18: Cyclic peptide 42 (peptide)
peptide: {CH2CO}-D[hCys]RGD[Orn](COCH2)F[hCys]KKK
modifications: thioether 2-6, N-8
B19: Cyclic peptide 8 (peptide)
peptide: {CH2CO}-ICRGD[Dab](COCH2)FCKKK
modifications: thioether 2-6 via Ac; thioether N-8
notes: as for B5
B20: Cyclic peptide 18 (peptide)
peptide: {CH2CO}-ICRGDK(COCH2)F[hCys]KKK
modifications: thioether 2-6 via Ac; thioether N-8; not fully specified
notes: as for B5
B21: Cyclic peptide 25 (peptide)
peptide: {CH2CO}-Y[hCys]RGDK(COCH2)F[hCys]KKK
modifications: thioether 2-6, N-8
B22: Cyclic peptide 49 (peptide)
peptide: ACDCRGDCFCGKKK
modifications: disulfide 2-10, 4-8
notes: as for B14
B23: Cyclic peptide 46 (peptide)
peptide: {CH2CO}-E[hCys]RGDK(COCH2)F[hCys]AKKK
modifications: thioether 2-6, N-8
B24: Cyclic peptide 11 (peptide)
peptide: {CH2CO}-I[hCys]RGDK(COCH2)F[hCys]KKK
modifications: thioether 2-6, N-8
B25: Cyclic peptide 24 (peptide)
peptide: {CH2CO}-E[Orn]RGD[hCys]F[Pen]KKK
modifications: thioether N-8; bridge 2-6; not fully specified (residue 2, bridges); printed as E RGD- -F-(Pen)-KKK
B26: Cyclic peptide 35 (peptide)
peptide: {CH2CO}-I[hCys]RGDK(COCH2)F[hCys]AKKK
modifications: thioether 2-6, N-8
B27: Cyclic peptide 14 (peptide)
peptide: {CH2CO}-I[Dap](COCH2)RGDCF[hCys]KKK
modifications: thioether 2-6 via Ac; thioether N-8; not fully specified
notes: as for B5
B28: Cyclic peptide 45 (peptide)
peptide: {CH2CO}-D[hCys]RGDK(COCH2)F[hCys]AKKK
modifications: thioether 2-6, N-8
B29: Cyclic peptide 23 (peptide)
peptide: {CH2CO}-I[Orn](COCH2)RGD[hCys]F[Pen]KKK
modifications: thioether 2-6, N-8
B30: Cyclic peptide 17 (peptide)
peptide: {CH2CO}-I[hCys]RGDK(COCH2)FCKKK
modifications: thioether 2-6 via Ac; thioether N-8; not fully specified
notes: as for B5
B31: Cyclic peptide 31 (peptide)
peptide: {CH2CO}-I[hCys]RGDK(COCH2)P[hCys]KKK
modifications: thioether 2-6, N-8
B32: Cyclic peptide 21 (peptide)
peptide: K[Dap]RGD[hCys]F[hCys]KKK
modifications: bridge N-8, 2-6; not fully specified (N-terminus, bridges); printed as K RGD- -F-(Hcy)-KKK
B33: Cyclic peptide 32 (peptide)
peptide: {CH2CO}-I[hCys]RGDK(COCH2)Y[hCys]KKK
modifications: thioether 2-6, N-8
B34: Cyclic peptide 1 (peptide)
peptide: {CH2CO}-I[Dap](COCH2)RGD[hCys]F[hCys]KKK
modifications: thioether 2-6, N-8

What follows are binders tested against T1, human integrin αvβ5 (human, UniProt P06756 31-992; P18084 24-719) (assay: SPR, Biacore 3000, peptide immobilised on CM5 chip, integrin 30-1000 nM flowed; grade A = dissociation constant 50 nM or less).
T1 construct: soluble analyte in SPR at 30, 100, 300 and 1,000 nM in HEPES buffer with 5 mM magnesium chloride; heterodimer of an alpha and a beta chain
T1 sequence (P06756 31-992, chain 1 of 2): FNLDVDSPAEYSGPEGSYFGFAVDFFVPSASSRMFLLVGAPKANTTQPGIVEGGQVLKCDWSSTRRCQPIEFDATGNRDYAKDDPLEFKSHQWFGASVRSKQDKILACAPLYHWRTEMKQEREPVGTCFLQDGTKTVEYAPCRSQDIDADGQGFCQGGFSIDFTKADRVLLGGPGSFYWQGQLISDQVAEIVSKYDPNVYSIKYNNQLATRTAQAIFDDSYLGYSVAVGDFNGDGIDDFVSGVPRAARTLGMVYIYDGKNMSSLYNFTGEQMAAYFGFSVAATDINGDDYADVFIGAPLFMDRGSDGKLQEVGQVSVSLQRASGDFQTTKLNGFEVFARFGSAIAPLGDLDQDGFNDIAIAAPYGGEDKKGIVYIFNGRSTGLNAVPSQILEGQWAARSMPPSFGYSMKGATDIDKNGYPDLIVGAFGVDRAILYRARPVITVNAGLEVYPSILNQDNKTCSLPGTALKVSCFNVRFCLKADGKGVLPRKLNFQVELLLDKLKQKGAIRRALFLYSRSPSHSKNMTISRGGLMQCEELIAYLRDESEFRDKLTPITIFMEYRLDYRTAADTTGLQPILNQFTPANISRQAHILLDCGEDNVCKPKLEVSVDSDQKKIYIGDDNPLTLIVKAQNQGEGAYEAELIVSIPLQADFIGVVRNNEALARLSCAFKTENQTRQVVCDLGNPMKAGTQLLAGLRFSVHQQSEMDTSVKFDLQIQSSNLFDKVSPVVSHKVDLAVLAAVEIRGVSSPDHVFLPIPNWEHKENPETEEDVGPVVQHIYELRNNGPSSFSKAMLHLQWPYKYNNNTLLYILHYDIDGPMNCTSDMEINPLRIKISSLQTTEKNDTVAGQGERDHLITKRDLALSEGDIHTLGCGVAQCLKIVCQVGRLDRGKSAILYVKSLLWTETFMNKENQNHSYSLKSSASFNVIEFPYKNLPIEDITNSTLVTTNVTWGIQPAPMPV
T1 sequence (P18084 24-719, chain 2 of 2): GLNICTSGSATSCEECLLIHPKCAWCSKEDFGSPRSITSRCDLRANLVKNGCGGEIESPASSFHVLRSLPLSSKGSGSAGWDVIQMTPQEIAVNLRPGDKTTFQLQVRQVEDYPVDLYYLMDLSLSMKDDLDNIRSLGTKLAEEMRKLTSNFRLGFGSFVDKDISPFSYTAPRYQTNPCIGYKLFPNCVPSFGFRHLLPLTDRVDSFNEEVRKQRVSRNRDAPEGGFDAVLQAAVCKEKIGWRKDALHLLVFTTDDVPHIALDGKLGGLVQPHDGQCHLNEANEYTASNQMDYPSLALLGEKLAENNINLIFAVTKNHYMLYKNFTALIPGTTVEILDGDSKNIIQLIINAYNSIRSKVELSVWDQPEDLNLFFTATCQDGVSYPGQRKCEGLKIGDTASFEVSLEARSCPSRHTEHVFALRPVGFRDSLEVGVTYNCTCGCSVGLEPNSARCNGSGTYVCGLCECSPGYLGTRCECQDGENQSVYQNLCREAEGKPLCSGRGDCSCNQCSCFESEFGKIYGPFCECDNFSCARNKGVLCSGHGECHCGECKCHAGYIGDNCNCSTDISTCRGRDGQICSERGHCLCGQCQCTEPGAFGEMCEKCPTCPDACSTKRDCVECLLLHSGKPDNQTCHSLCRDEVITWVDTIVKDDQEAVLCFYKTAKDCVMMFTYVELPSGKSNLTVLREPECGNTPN
Procedure: (§1) However, only for the cyclic peptide 22, in which the number of lysine residues having an amino group as the immobilizing functional group was 1, the sample solution to be supplied to the sensor chip was set to 5,000 μL instead of 300 μL. Similarly, 70 μL of the mixed aqueous solution of 0.2 M EDC and 0.04 M NHS was added to another flow channel of the same sensor chip without immobilizing the sample, and then blocking treatment and washing treatment were carried out. Hereinafter, the obtained immobilization-treated sensor chip is referred to as an “immobilization-treated sensor chip A”.
(§2) After adding human integrin αvβ5 for 10 minutes at 25° C., which was diluted to 30 nM using a HEPES buffer solution to which magnesium chloride was added to 5 mM, in each flow channel of the immobilization-treated sensor chip A prepared in (1) above, the same HEPES buffer solution (containing 5 mM magnesium chloride) was allowed to flow as a running buffer for 30 minutes, and measurement was carried out with Biacore 3000.
(§3) Then, a regeneration treatment of removing human integrin αvβ5 was carried out by allowing a 0.5 M EDTA aqueous solution to flow through each flow channel for 10 minutes. Further, the above-described measurement process consisting of adding integrin for 10 minutes, allowing a running buffer to flow for 30 minutes, carrying out measurement with Biacore 3000, and carrying out regeneration treatment with 0.5 M EDTA aqueous solution was carried out in the same manner for 100 nM human integrin αvβ5, 300 nM human integrin αvβ5, and 1,000 nM human integrin αvβ5. Dissociation constant between the cyclic peptide and human integrin αvβ5 was calculated from the difference between the value measured by Biacore 3000 in the flow channel immobilized with the cyclic peptide and the value measured by Biacore 3000 in the flow channel unimmobilized with the cyclic peptide, in a case where each concentration of human integrin αvβ5 was allowed to flow, and the integrin binding property was evaluated according to the following evaluation standards. It is preferable that the evaluation result satisfies the evaluation standard A, B, or C.

With B1 as the binder, how does the dissociation constant read?
The dissociation constant was under 50 nM.

Which dissociation constant does the source give for B2 here?
Its dissociation constant is under 50 nM.

With B3 as the binder, how does the dissociation constant read?
Its dissociation constant is under 50 nM.

B4 was tested. Which dissociation constant (KD) did it give?
The dissociation constant (KD) was under 0.05 µM.

How did the “dissociation constant (KD)” value turn out when B5 was run?
Its value is at most 0.05 µM.

How did the dissociation constant turn out when B6 was run?
Its dissociation constant is under 50 nM.

For B7, which “dissociation constant (KD)” value is on record?
Its value is at most 0.05 µM.

With B8 as the binder, how does the dissociation constant read?
Its dissociation constant is under 50 nM.

How did the dissociation constant turn out when B9 was run?
Its dissociation constant is under 50 nM.

B10 was tested. Which dissociation constant did it give?
Its dissociation constant is under 50 nM.

How did the dissociation constant turn out when B11 was run?
Its dissociation constant is under 50 nM.

B12 was tested. Which “dissociation constant (KD)” value did it give?
Its value is at most 0.05 µM.

How did the dissociation constant turn out when B13 was run?
The dissociation constant was under 50 nM.

How did the dissociation constant turn out when B14 was run?
Its dissociation constant is at most 50 nM.

B15 was tested. Which dissociation constant did it give?
The dissociation constant was under 50 nM.

Which dissociation constant does the source give for B16 here?
The dissociation constant was under 50 nM.

B17 was tested. Which dissociation constant (KD) did it give?
The dissociation constant (KD) was under 0.05 µM.

Which dissociation constant does the source give for B18 here?
The dissociation constant was under 50 nM.

B19 was tested. Which “dissociation constant (KD)” value did it give?
The value was at most 0.05 µM.

With B20 as the binder, how does the “dissociation constant (KD)” value read?
The value was at most 0.05 µM.

With B21 as the binder, how does the dissociation constant read?
The dissociation constant was under 50 nM.

For B22, which dissociation constant is on record?
The dissociation constant was at most 50 nM.

With B23 as the binder, how does the dissociation constant read?
Its dissociation constant is under 50 nM.

With B24 as the binder, how does the dissociation constant (KD) read?
Its dissociation constant (KD) is under 0.05 µM.

Which dissociation constant (KD) does the source give for B25 here?
The dissociation constant (KD) was under 0.05 µM.

With B26 as the binder, how does the dissociation constant read?
Its dissociation constant is under 50 nM.

Which “dissociation constant (KD)” value does the source give for B27 here?
Its value is at most 0.05 µM.

How did the dissociation constant turn out when B28 was run?
Its dissociation constant is under 50 nM.

Which dissociation constant (KD) does the source give for B29 here?
The dissociation constant (KD) was under 0.05 µM.

With B30 as the binder, how does the “dissociation constant (KD)” value read?
Its value is at most 0.05 µM.

What follows are binders tested against T1, human integrin αvβ5 (assay: SPR, Biacore 3000, peptide immobilised on CM5 chip, integrin 30-1000 nM flowed; grade B = dissociation constant more than 50 nM and 100 nM or less).
Procedure: as §1, §2, §3

Which dissociation constant does the source give for B31 here?
The dissociation constant was 50 to 100 nM.

With B32 as the binder, how does the dissociation constant (KD) read?
Its dissociation constant (KD) is 0.05 to 0.1 µM.

How did the dissociation constant turn out when B33 was run?
Its dissociation constant is 50 to 100 nM.

How did the dissociation constant (KD) turn out when B34 was run?
Its dissociation constant (KD) is 0.05 to 0.1 µM.
